“And” between values parts separate entries of the source, which are not always exact repeats. Equal values may be shown once. “Also recorded” adds a separate entry of the source.
What was measured:
[1] = test system: MOLM-14 cells; test: MTT assay with DMFH1 in AML cell line MOLM-14; conditions: MOLM-14, 48-hour exposure, 10 μM DMFH1
Procedure: (§1) MTT Cell based assay with DMFH1 in AML cell lines. Cell cytotoxicity of DM4 on MOLM-14, KG-1, Kasumi-3, MV-4-11 cells with and without 10 μM of DMFH1 sdAb over a 48-hour exposure periods.

[2] = test system: Kasumi-3 cells; test: MTT assay with DMFH1 in AML cell line Kasumi-3; conditions: Kasumi-3, 48-hour exposure, 10 μM DMFH1
Procedure: as §1

[3] = test system: KG-1 cells; test: MTT assay with DMFH1 in AML cell line KG-1; conditions: KG-1, 48-hour exposure, 10 μM DMFH1
Procedure: as §1

[4] = test system: SK-BR-3 cells; test: MTT cytotoxicity assay in SK-BR-3 cells; assay type: cell-based; conditions: 10 μM DMFH1
[5] = test system: MV-4-11 cells; test: MTT assay with DMFH1 in AML cell line MV-4-11; conditions: MV-4-11, 48-hour exposure, 10 μM DMFH1
Procedure: as §1

[6] = test system: SK-BR-3 cells; test: MTT cytotoxicity assay in SK-BR-3 cells; assay type: cell-based; conditions: 24 h exposure, 10 μM sdAb
Procedure: Positive clone sdAbs' DNA in pComb3XSS plasmid was isolated and transferred into pET-22b expression vector in SHuffle cells for expression. SK-BR-3 cells were used to test the anti-DM4 sdAbs effect on DM4 cytotoxicity. Briefly, 2,500 cells/well were seeded into a 96-well plate and allowed to adhere for 24 h before cell culture media was aspirated and replaced with 100 μL of fresh media solution containing with or without 10 μM of anti-DM4 sdAb and a range of DM4 concentration for another 24 h exposure period. The cells were then washed 2 times before replacing with fresh media and allowed to grow for additional 72 h.

[7] = Competitive ELISA with free DM4; assay type: binding
Procedure: To determine the binding affinity of the anti-DM4 sdAbs to DM4-conjugates and free DM4, indirect ELISA and competitive ELISA were employed. Briefly, ELISA plate were coated overnight with 100 μL of neutravidin at different concentration ranging from 1 μg/mL to 10 μg/mL. After blocking with 200 μL of 2% skimmed milk-PBST for 1 h, 100 μL of 1 μM biotin-DM4 solution was added into each well and incubated for 30 min, then 100 μL of purified anti-DM4 sdAb solution at concentration ranging from 0.1 nM to 1 μM was added and incubated for 1 h. Bound sdAbs were detected with HRP conjugated anti-His antibody and TMB substrate. After the linear range of binding was determined via the indirect ELISA, a concentration of anti-DM4 sdAb near the IC50 of binding was selected to proceed with competitive ELISA. For the competitive ELISA, anti-DM4 sdAb concentration was held constant as determined from the indirect ELISA and incubated with increasing concentration of DM4 ranging from 0.1 nM to 1 μM.

B1: DMFH1 (protein)
VHH: QVQLQESGGGLVQPGGSLRLSCAASGSIFGISYMGWYRQAPGKQREPVAMITSGGSTYYADSVKGRVTISRDNAKKTVYLQMNSLRPEDASTYYCAAGCYRSDSPNRYDYWGQGTQVTVSS
modifications: DMFH1
**Q.** Which “fold shift of DM4 IC50” value [1] does the source give for B1 here?
**A.** Its value is 60.7 fold.

**Q.** And the “fold shift of DM4 IC50” value [2]?
**A.** The value was 38.3 fold.

**Q.** What about the “fold shift of DM4 IC50” value [3] of the same molecule?
**A.** Its value is 57.2 fold.

**Q.** And the “effect on Trastuzumab Emtansine (T-DM1) cytotoxicity” value [4]?
**A.** The value was “did not alter the cytotoxicity; also recorded: did not change T-DM1 cytotoxicity significantly”.

**Q.** And the “fold shift of DM1 IC50” value ([4]; 24 h)?
**A.** Its value is 85.6 fold.

**Q.** What about the “fold shift of DM4 IC50” value [5] of the same molecule?
**A.** Its value is 50.9 fold.

**Q.** And the “Fold shifted (DM4 IC50)” value [6]?
**A.** The value was 254 fold and 250.5 fold.

**Q.** What about the Kd ([7]; free DM4, read-out: Estimated KD) of the same molecule?
**A.** The Kd was 11 nM and 10.5 nM.

**Q.** What about the IC50 ([7]; read-out: Estimated binding affinity IC50 to free DM4) of the same molecule?
**A.** Its IC50 is 11 nM.

Source: patent US12624123B2, “Compositions and methods for reducing off-target toxicity of antibody drug conjugates” (The Research Foundation for The State University of New York, priority 2019, dated 2026)
